{"source": "patent US20070298043A1", "about": "(RAMOT AT TEL AVIV UNIVERSITY, published 2007)", "binders": {"B1": {"name": "12-24 (peptide)", "peptide": "TISYSEARQNLSA", "notes": "Cell not labelled; also called YefM12-24 peptide"}, "B2": {"name": "10-22 (peptide)", "peptide": "MRTISYSEARQNL", "notes": "Cell not labelled; also called YefM10-22 peptide"}, "B3": {"name": "YefM11-23 analog with arginine 19 replaced by glycine (peptide)", "peptide": "RTISYSEAGQNLS", "notes": "Arrayed on a cellulose membrane"}, "B4": {"name": "YefM15-27 peptide (peptide)", "peptide": "YSEARQNLSATMM"}, "B5": {"name": "YefM11-23 analog with leucine 22 replaced by alanine (peptide)", "peptide": "RTISYSEARQNAS", "notes": "Position 22 counts on whole YefM"}, "B6": {"name": "YefM11-23 analog with arginine 19 replaced by alanine (peptide)", "peptide": "RTISYSEAAQNLS", "notes": "as for B3"}, "B7": {"name": "YefM11-23 analog with leucine 22 replaced by glycine (peptide)", "peptide": "RTISYSEARQNGS", "notes": "as for B5"}, "B8": {"name": "YefM75-87 peptide (peptide)", "peptide": "DSIDSLKSGKGTE"}, "B9": {"name": "YefM13-25 peptide (peptide)", "peptide": "ISYSEARQNLSAT", "notes": "It follows from 'YefM11-23-YefM15-27', three tridecamers with a shift of two amino acids; also called second of the three tridecamers YefM11-23-YefM15-27"}}, "key": {"[1]": {"target": "T1, GST-YoeB fusion protein (Escherichia coli, UniProt P69348 1-84)", "T1 construct": "also called YoeB-GST; GST-YoeB fusion polypeptide; not shown: glutathione S-transferase (GST) fusion partner encoded by the pET42a expression vector (Novagen); vector-encoded linker of pET42a between GST and the EcoRI cloning site; not described", "T1 sequence": "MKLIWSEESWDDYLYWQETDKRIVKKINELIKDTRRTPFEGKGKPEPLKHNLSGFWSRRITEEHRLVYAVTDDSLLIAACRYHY", "assay": "peptide array on cellulose membrane, single-residue shift, high stringency, GST-YoeB probe, anti-GST antibody and chemiluminescence", "description": "(§1) Following incubation, the membrane was washed once in TBS-T then supplemented with 10 ml suspension comprising TBS, mouse anti-GST antibody and horseradish peroxidase conjugated goat anti-mouse antibody in the appropriate titers. Following 1 hour incubation at room temperature the membrane was briefly washed with TBS-T and TBS."}, "[2]": {"target": "T1, GST-YoeB fusion protein", "assay": "peptide array on cellulose membrane, anti-GST detection", "description": "as §1"}, "[3]": {"target": "T1, GST-YoeB fusion protein", "assay": "peptide array on cellulose membrane, low stringency, GST-YoeB probe, anti-GST antibody and chemiluminescence"}, "[4]": {"target": "T1, GST-YoeB fusion protein", "assay": "peptide array of single-replacement analogs", "description": "as §1"}, "[5]": {"target": "T1, GST-YoeB fusion protein", "assay": "peptide array, low stringency"}}, "data": [{"binder": "B1", "values": [{"measurement": "binding result", "setting": "[1]", "result": "binds"}]}, {"binder": "B2", "values": [{"measurement": "binding result", "setting": "[1]", "result": "binds"}]}, {"binder": "B3", "values": [{"measurement": "binding result", "setting": "[2]", "result": "no binding"}]}, {"binder": "B4", "values": [{"measurement": "binding result", "setting": "[3]", "result": "binds"}]}, {"binder": "B5", "values": [{"measurement": "binding result", "setting": "[4]", "result": "binds"}]}, {"binder": "B6", "values": [{"measurement": "binding result", "setting": "[2]", "result": "no binding"}]}, {"binder": "B7", "values": [{"measurement": "binding result", "setting": "[4]", "result": "binds"}]}, {"binder": "B8", "values": [{"measurement": "binding result", "setting": "[5]", "result": "binds"}]}, {"binder": "B9", "values": [{"measurement": "binding result", "setting": "[3]", "result": "binds"}]}]}
